Laboratory results as given in patent US20040247614A1 (J DAVID GLADSTONE INSTITUTES, published 2004).

B1: synthetic unacetylated Tat (other)
chain: MEPVDPRLEPWKHPGSQPKTACTTCYCKKCCFHCQVCFTTKALGISYGRKKRRQRRRPPQGSQTHQVSLSKQ
notes: range 1-72; also called nonacetylated Tat
B2: synthetic Tat protein containing a single acetylated lysine at position 50 (AcTat) (other)
chain: MEPVDPRLEPWKHPGSQPKTACTTCYCKKCCFHCQVCFTTKALGISYGRKKRRQRRRPPQGSQTHQVSLSKQ
modifications: acetylated lysine at position 50 (K50)
notes: range 1-72; also called acetylated Tat; K50-acetylated Tat

Biological target: T1, GST alone (UniProt P08515 1-218 = GST)
T1 construct: Control in the GST pulldown
T1 sequence (P08515 whole entry): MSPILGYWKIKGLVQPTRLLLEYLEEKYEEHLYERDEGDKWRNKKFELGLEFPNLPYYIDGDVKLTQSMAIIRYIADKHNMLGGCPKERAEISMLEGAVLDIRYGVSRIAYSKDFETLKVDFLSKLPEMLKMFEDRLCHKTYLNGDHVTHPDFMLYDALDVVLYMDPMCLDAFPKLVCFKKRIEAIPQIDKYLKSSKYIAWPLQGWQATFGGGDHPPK
Experiment: GST pulldown, immunoblot with anti-Tat mAb

Binder | binding result
B1 | no binding
B2 | no binding
